Key:
[1] = target: HLA-A*24:02; assay: IEDB peptide-MHC binding, purified MHC/competitive/radioactivity; filed as Kd, often an IC50 or EC50 that approximates it; ≥ and ≤ were set here for values at or beyond the usual limits of such assays
[2] = target: HLA-B*15:01; assay: IEDB peptide-MHC binding, purified MHC/direct/fluorescence; filed as Kd, often an IC50 or EC50 that approximates it; ≥ and ≤ were set here for values at or beyond the usual limits of such assays
[3] = target: HLA-A*30:01; assay: IEDB peptide-MHC binding, purified MHC/competitive/radioactivity; filed as Kd, often an IC50 or EC50 that approximates it; ≥ and ≤ were set here for values at or beyond the usual limits of such assays
[4] = target: HLA-A*30:02; assay: as above
[5] = target: HLA-A*01:01; assay: as above
[6] = target: HLA-A*23:01; assay: as above
[7] = target: HLA-B*44:02; assay: as above
[8] = target: HLA-A*29:02; assay: as above; details: source organism: Mammarenavirus guanaritoense
[9] = target: HLA-A*01:01; assay: IEDB peptide-MHC binding, purified MHC/direct/fluorescence; filed as Kd, often an IC50 or EC50 that approximates it; ≥ and ≤ were set here for values at or beyond the usual limits of such assays
[10] = target: HLA-A*26:01; assay: IEDB peptide-MHC binding, purified MHC/competitive/radioactivity; filed as Kd, often an IC50 or EC50 that approximates it; ≥ and ≤ were set here for values at or beyond the usual limits of such assays
[11] = target: HLA-A*69:01; assay: IEDB peptide-MHC binding, purified MHC/direct/fluorescence; filed as Kd, often an IC50 or EC50 that approximates it; ≥ and ≤ were set here for values at or beyond the usual limits of such assays
[12] = target: HLA-A*02:01; assay: as above; details: source organism: Vibrio vulnificus
[13] = target: HLA-A*02:06; assay: IEDB peptide-MHC binding, purified MHC/competitive/radioactivity; filed as Kd, often an IC50 or EC50 that approximates it; ≥ and ≤ were set here for values at or beyond the usual limits of such assays
[14] = target: HLA-A*03:01; assay: IEDB peptide-MHC binding, purified MHC/direct/fluorescence; filed as Kd, often an IC50 or EC50 that approximates it; ≥ and ≤ were set here for values at or beyond the usual limits of such assays; details: source organism: Mycobacterium tuberculosis
[15] = target: HLA-A*03:01; assay: IEDB peptide-MHC binding, purified MHC/competitive/radioactivity; filed as Kd, often an IC50 or EC50 that approximates it; ≥ and ≤ were set here for values at or beyond the usual limits of such assays; details: source organism: Dengue virus 1 Brazil/97-11/1997
[16] = target: HLA-A*02:02; assay: as above; details: source organism: Vaccinia virus WR
[17] = target: HLA-A*02:03; assay: as above; details: source organism: Vaccinia virus WR
[18] = source organism: Dengue virus 1 Brazil/97-11/1997
[19] = source organism: Mammarenavirus juninense
[20] = source organism: Dengue virus 2 Jamaica/1409/1983
[21] = source organism: Dengue virus 3 Martinique/1243/1999
[22] = source organism: Mammarenavirus guanaritoense
[23] = source organism: Vaccinia virus WR
[24] = source organism: Dengue virus 4 Philippines/H241/1956

Sequence: LFSGVSWTM
- Kd [1, 18]: 449 nM

Sequence: LLFLPKAAY
- Kd [2, 19]: 99.4 nM

Sequence: LRFLAIPPTA
- Kd [3, 18]: 3130 nM

Sequence: LSRKTFDTEY
- Kd [4, 18]: 975 nM
- Kd [5, 18]: 503 nM

Sequence: LTTRNGEPHM
- Kd [3, 20]: 13700 nM

Sequence: MANIFRGSY
- Kd [4, 20]: 113 nM

Sequence: MWHVTRGAVL
- Kd [1, 20]: 1690 nM
- Kd [6, 20]: 1460 nM

Sequence: NAICSAVPVH
- Kd [3, 21]: 2950 nM

Sequence: NEWITDFAG
- Kd [7, 21]: 6550 nM

Sequence: NFGTFYEHI
- Kd [1, 22]: 1950 nM
- Kd [8]: 400 nM
- Kd [6, 22]: 451 nM

Sequence: NLITCNDHY
- Kd [9, 19]: ≥ 20000 nM

Sequence: NMDRAVKLY
- Kd ([9]; source organism: Influenza A virus (A/Hong Kong/488/97(H5N1))): 584 nM

Sequence: PTSEIQLTDY
- Kd [5, 18]: 255 nM
- Kd [10, 18]: ≥ 69700 nM

Sequence: QGKRTLTPQP
- Kd [3, 21]: 1270 nM

Sequence: QNYVCKHTY
- Kd [4, 21]: ≥ 76900 nM

Sequence: QSDTVFDYY
- Kd [1, 23]: ≥ 72700 nM
- Kd [6, 23]: ≥ 32500 nM

Sequence: QVGTYGLNTF
- Kd [6, 20]: 790 nM

Sequence: QWFVERNMVI
- Kd [1, 21]: 121 nM
- Kd [6, 21]: 111 nM

Sequence: RAIASMIMY
- Kd [3, 23]: 71.1 nM

Sequence: RLSDPRFSQ
- Kd ([11]; source organism: Vibrio vulnificus): 121 nM
- Kd [12]: ≥ 20000 nM

Sequence: RRRTAGMII
- Kd ([3]; source organism: Dengue virus 2 Peru/IQT2913/1996): 4830 nM

Sequence: RSKAFSNCY
- Kd ([9]; source organism: Influenza A virus (A/duck/Ontario/05/00 (H3N2))): ≥ 20000 nM

Sequence: RSKNTIIIA
- Kd [3, 23]: 0.163 nM

Sequence: RTIMAVLFV
- Kd [3, 24]: 135 nM
- Kd [13, 24]: 19.4 nM

Sequence: RYMGEDGCWY
- Kd [1, 21]: 828 nM
- Kd [4, 21]: ≥ 69700 nM

Sequence: SITLATGPLT
- Kd [3, 18]: 3930 nM

Sequence: SKIPGGNMY
- Kd [4, 18]: 2450 nM

Sequence: SSVNMISRM
- Kd [10, 20]: 1340 nM

Sequence: STVSQLAKRF
- Kd ([10]; source organism: Dengue virus 1 Nauru/West Pac/1974): 3590 nM

Sequence: TFIRSTMPL
- Kd [6, 24]: 255 nM

Sequence: TSEIQLTDY
- Kd [5, 18]: 323 nM

Sequence: TSETFSMGL
- Kd [5, 24]: 7690 nM

Sequence: TSRNNHLPA
- Kd ([3]; source organism: Vaccinia virus Copenhagen): 15.2 nM

Sequence: TTMRGAKRM
- Kd [10, 20]: 8190 nM

Sequence: TWLVHKQWF
- Kd [1, 24]: 302 nM
- Kd [6, 24]: 282 nM

Sequence: VDYMPVMKRY
- Kd [4, 24]: 76.4 nM

Sequence: VLCPYMPKV
- Kd ([11]; source organism: West Nile virus): 1610 nM

Sequence: VLIDAGLPK
- Kd [14]: 319 nM

Sequence: VTARWLWGFL
- Kd ([5]; source organism: Dengue virus 1 Singapore/S275/1990): 8660 nM

Sequence: VVRVQRPAK
- Kd [3, 18]: 22.4 nM
- Kd [15]: 126 nM

Sequence: WQGDTGITY
- Kd ([2]; source organism: Mycobacterium tuberculosis variant bovis): 799 nM

Sequence: YDQENPYRTW
- Kd [7, 24]: 156 nM

Sequence: YLAENTFVV
- Kd ([11]; source organism: Mycobacterium tuberculosis): 15.7 nM

Sequence: YSQVNPLTL
- Kd [5, 18]: 1010 nM

Sequence: YVLFVKKML
- Kd [16]: ≥ 31100 nM
- Kd [13, 23]: 2540 nM
- Kd [17]: 12000 nM

Source: the Immune Epitope Database (IEDB)
